Data: patent US20240383984A1 (Genentech, published 2024)

What was measured:
[1] = target: T1, human FcRH5 protein fragment (soluble) (human, UniProt Q96RD9 16-851); experiment: SPR (BIACORE), TDB captured as ligand, Hu FcRH5 as analyte, 25 °C, 1:1 binding model
T1 construct: whole entry named; also called soluble human FcRH5; Human FcRH5 (BIACORE analyte)
T1 sequence: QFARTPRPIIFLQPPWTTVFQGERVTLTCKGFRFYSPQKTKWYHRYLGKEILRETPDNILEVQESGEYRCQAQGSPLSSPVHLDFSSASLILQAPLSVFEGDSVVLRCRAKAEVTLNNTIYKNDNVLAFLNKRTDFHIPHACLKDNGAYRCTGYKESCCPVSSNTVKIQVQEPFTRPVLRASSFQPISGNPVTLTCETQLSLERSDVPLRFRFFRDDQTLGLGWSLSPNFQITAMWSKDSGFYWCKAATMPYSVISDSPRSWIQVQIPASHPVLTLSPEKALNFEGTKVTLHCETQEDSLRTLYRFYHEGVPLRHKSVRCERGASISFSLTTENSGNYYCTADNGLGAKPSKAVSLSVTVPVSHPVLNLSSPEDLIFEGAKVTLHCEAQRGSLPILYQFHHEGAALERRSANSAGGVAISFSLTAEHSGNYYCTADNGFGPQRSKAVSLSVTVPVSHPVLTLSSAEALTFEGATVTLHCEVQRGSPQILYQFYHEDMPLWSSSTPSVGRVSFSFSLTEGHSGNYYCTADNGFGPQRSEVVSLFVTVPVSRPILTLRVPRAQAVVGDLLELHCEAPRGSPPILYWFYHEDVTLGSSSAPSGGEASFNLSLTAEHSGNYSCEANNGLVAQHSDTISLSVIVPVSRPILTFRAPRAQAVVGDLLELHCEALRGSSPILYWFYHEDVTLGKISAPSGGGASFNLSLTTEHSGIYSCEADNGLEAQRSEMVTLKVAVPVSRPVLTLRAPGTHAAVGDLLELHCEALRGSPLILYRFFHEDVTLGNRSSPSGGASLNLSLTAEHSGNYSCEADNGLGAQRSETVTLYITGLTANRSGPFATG

[2] = target: T2, cynomolgus FcRH5 protein fragment (soluble) (cynomolgus monkey); experiment: SPR (BIACORE), TDB captured as ligand, Cyno FcRH5 as analyte, 25 °C, 1:1 binding model
T2 construct: whole entry named; also called Cyno FcRH5 (BIACORE analyte)
T2 chain: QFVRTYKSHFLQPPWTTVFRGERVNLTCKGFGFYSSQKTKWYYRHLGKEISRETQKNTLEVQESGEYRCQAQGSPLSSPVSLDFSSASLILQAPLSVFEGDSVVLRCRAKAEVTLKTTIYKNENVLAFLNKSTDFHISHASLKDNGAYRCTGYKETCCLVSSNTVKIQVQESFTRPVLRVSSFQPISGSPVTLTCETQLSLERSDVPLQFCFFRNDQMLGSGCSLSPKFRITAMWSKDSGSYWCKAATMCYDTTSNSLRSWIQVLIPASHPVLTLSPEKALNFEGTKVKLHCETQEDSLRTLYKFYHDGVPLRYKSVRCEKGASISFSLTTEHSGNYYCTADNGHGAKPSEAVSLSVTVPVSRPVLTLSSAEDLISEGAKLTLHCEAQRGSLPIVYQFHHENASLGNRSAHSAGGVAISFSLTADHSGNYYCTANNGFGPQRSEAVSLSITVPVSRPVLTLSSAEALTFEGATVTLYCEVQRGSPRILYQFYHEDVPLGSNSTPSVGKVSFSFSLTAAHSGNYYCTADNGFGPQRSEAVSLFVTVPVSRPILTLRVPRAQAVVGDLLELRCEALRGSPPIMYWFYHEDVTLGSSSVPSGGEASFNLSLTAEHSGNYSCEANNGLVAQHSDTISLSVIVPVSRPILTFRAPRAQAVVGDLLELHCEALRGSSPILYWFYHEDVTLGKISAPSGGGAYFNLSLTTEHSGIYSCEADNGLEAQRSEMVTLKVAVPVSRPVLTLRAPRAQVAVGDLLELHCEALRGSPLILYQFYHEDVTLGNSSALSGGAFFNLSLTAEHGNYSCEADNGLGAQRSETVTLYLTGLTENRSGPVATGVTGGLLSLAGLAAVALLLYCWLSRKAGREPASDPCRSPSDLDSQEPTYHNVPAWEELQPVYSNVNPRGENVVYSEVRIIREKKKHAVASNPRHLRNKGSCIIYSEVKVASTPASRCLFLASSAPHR

[3] = target: T2, cynomolgus FcRH5 protein fragment …; experiment: BIACORE, hIgG capture, 1:1 model, monovalent
Protocol: (§1) Briefly, a human IgG capture surface was generated on a Series S CM5 chip using amine coupling and the human IgG capture kit (GE Life Sciences, Piscataway, NJ). Test antibodies were then captured on flow cells 2, 3, or 4, with flow cell 1 used as a reference. An FcRH5 protein fragment was used as the analyte, with a flow rate of […]. Between injections the capture surface was regenerated by a 30-second injection of 3M magnesium chloride or 10 mM glycine, pH 1.5. Interactions were assessed at 25° C. in 10 mM HEPES pH7.4, 150 mM NaCl, and 0.05% Tween 20 (HBSP). Reference data from the reference flow cell and from injection of buffer alone were subtracted prior to kinetic analysis. Kinetic information was calculated by fitting data to a 1:1 binding model. Reference subtraction and data fitting were performed using BIAevaluation software (GE Life Sciences, Piscataway, NJ).
(§2) Kinetic characterization experiments were carried out (see Table 8). In these experiments, binding of soluble FcRH5 protein fragment to purified antibodies in human TDB antibody format was analyzed at six different non-zero concentrations (a 1:3 dilution series, one concentration injected twice as a replicate). Flow rate was set at 40 μl/min and association and dissociation monitored for 600 s.

[4] = target: T1, human FcRH5 protein fragment (soluble); experiment: BIACORE, hIgG capture, 1:1 model, monovalent
Protocol: as §1, §2

[5] = target: T2, cynomolgus FcRH5 protein fragment …; experiment: BIACORE
[6] = target: T1, human FcRH5 protein fragment (soluble); experiment: BIACORE
[7] = target: T2, cynomolgus FcRH5 protein fragment …; experiment: SPR (BIACORE), Cyno FcRH5, 1:1 binding model

B1: hu1G7.v1.4/38E4.v1 TDB (bispecific antibody, V domains shown)
VH 1: EVQLVESGPGLVKPSETLSLTCTVSGFSLTRFGVHWVRQPPGKGLEWLGVIWRGGSTDYNAAFMSRLTISKDNSKNQVSLKLSSVTAADTAVYYCSNHYYGSSDYALDNWGQGTLVTVSS
VL 1: DIQMTQSPSSLSASVGDRVTITCKASQDVRNLVVWFQQKPGKAPKLLIYSGSYRYSGVPSRFSGSGSGTDFTLTISSLQPEDFATYYCQQHYSPPYTFGQGTKVEIK
VH 2: EVQLVQSGAEVKKPGASVKVSCKASGFTFTSYYIHWVRQAPGQGLEWIGWIYPENDNTKYNEKFKDRVTITADTSTSTAYLELSSLRSEDTAVYYCARDGYSRYYFDYWGQGTLVTVSS
VL 2: DIVMTQSPDSLAVSLGERATINCKSSQSLLNSRTRKNYLAWYQQKPGQSPKLLIYWTSTRKSGVPDRFSGSGSGTDFTLTISSLQAEDVAVYYCKQSFILRTFGQGTKVEIK
notes: knob-into-hole TDB; also called 1G7.v1.4 TDB; 1G7.v1.4 (TDB format)
[1]
  Kd: 2.41 nM
  koff: 0.00117 s⁻¹
  kon: 484000 M⁻¹ s⁻¹
[2]
  Kd: 6.27 nM
  koff: 0.000847 s⁻¹
  kon: 135000 M⁻¹ s⁻¹

B2: 1G7.v85/38E4.v1 TDB (bispecific antibody, V domains shown)
VH 1: EVQLVESGPGLVKPSETLSLTCTVSGFSLTRFGVHWVRQPPGKGLEWLGVIWRGGSTDYNAAFVSRLTISKDNSKNQVSLKLSSVTAADTAVYYCSNHYYGSSDYALDNWGQGTLVTVSS
VL 1: DIQMTQSPSSLSASVGDRVTITCKASQDVRNLVVWFQQKPGKAPKLLIYSGSYRYSGVPSRFSGSGSGTDFTLTISSLQPEDFATYYCQQHYSPPYTFGQGTKVEIK
VH 2: EVQLVQSGAEVKKPGASVKVSCKASGFTFTSYYIHWVRQAPGQGLEWIGWIYPENDNTKYNEKFKDRVTITADTSTSTAYLELSSLRSEDTAVYYCARDGYSRYYFDYWGQGTLVTVSS
VL 2: DIVMTQSPDSLAVSLGERATINCKSSQSLLNSRTRKNYLAWYQQKPGQSPKLLIYWTSTRKSGVPDRFSGSGSGTDFTLTISSLQAEDVAVYYCKQSFILRTFGQGTKVEIK
notes: knob-into-hole TDB; also called 1G7.v85 TDB; 1G7.v85 (TDB format)
[3]
  Kd: 6.76 nM
[4]
  Kd: 2.35 nM
[5]
  Kd: 7.8 nM
[6]
  Kd: 2.1 nM
[7]
  Kd: 7.82 nM
  koff: 0.000455 s⁻¹
  kon: 58200 M⁻¹ s⁻¹
